According to publication PMC11255866:
Like-named read-outs stand apart in the source and are kept apart here.

Key:
Assay in all cases: fluorescence polarisation
[1] = molecular target: U1‐70K BAD1 255–278 (human) (UniProt P08621)
[2] = molecular target: SRSF1 RRM1 (residues 14–90), Alexa Fluor 488 labelled (human) (UniProt Q07955)
[3] = molecular target: SRSF1 RRM1 (residues 14–90), Alexa Fluor 488 labelled (human) (UniProt Q07955); remark: listed apart in the source
[4] = molecular target: Hyper‐phosphorylated SRSF1 (phosphorylated by Clk1), Alexa Fluor 488 labelled at T248C (human) (UniProt Q07955)
Hyper‐phosphorylated SRSF1 (phosphorylated by Clk1), Alexa Fluor 488 labelled at T248C (human), sequence (Q07955 whole entry T248C): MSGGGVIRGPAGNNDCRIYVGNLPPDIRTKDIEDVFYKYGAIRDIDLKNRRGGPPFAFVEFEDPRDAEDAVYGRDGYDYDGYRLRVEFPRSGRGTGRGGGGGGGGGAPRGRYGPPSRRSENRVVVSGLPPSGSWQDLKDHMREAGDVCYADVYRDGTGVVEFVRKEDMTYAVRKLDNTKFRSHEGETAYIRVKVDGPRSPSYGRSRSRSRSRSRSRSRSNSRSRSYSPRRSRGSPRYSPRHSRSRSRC

U1‐70K RRM (residues 64–202), sequence (P08621 64-202): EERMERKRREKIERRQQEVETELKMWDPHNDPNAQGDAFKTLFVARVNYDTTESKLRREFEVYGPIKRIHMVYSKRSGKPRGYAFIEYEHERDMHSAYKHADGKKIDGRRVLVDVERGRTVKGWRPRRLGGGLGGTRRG
U1‐70K RRM 92–202, sequence (P08621 92-202): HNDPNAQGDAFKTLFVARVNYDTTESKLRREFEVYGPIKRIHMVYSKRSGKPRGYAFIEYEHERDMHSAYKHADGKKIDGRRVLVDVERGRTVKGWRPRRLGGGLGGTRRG
U1‐70K BAD1 (residues 229–306), sequence (P08621 229-306): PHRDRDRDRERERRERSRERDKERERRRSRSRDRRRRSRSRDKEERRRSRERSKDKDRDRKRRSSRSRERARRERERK
Hyper phosphorylated SRSF1 RS (residues 199–248), unlabelled, sequence (Q07955 199-248): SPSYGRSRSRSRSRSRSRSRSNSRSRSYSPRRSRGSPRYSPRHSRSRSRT

Kd [2]	Kd [3]	Substance	further results
–	–	Hyper phosphorylated SRSF1 RS (residues 199–248), unlabelled (from UniProt Q07955 199-248) (domain or fragment)	Kd [1]: 2000 nM
240 nM	–	U1‐70K BAD1 (residues 229–306) (from UniProt P08621 229-306) (domain or fragment)	–
–	7000 nM	U1‐70K RRM 92–202 (from UniProt P08621 92-202) (domain or fragment)	–
3000 nM	6000 nM	U1‐70K RRM (residues 64–202) (from UniProt P08621 64-202) (domain or fragment)	–
–	–	U1‐70K ΔBAD2 (domain or fragment)	Kd [4]: 650 nM
